Experimental data taken from US20200179236A1, “METHOD AND PRODUCT FOR CARIES TREATMENT” (Credentis AG, priority 2016, published 2020).
Where no end group is shown, it is not given here.

Assays:
[1] = Self-assembling kinetic of P11-4 by measurements of elastic modulus G′; format: physicochemical; settings: 15 mg/ml, neutral pH, 37° C., 0.1% strain, 1 rad/second; independent of ionic strength
Experimental: P11-4 was prepared at 15 mg/ml with different buffer compositions (see below) measured at 0.1% strain, 37° C. and a frequency of 1 rad/second. Self-assembly of peptide monomers to polymers takes more than 5 min independent of the used ionic strength at neutral pH.
Squares (top line of symbols) —NaCl: Tris (0.055 M)+NaCl, final ionic strength 142 mM;
Artifical saliva (second line of symbols from top): Tris, Ca(NO3)2, KH2PO4 (ratio 0.77:0.14: 0.08), ionic strength 142 mM;
Dulbecco's Modified Eagle Medium (DMEM): NaCl, NaHCO3,KCl,CaCl2, MgSO4 (ratio 0.66:0.4:0.05: 0.02:0.007), ionic strength 165 mM; MgSO4: 0.055 M Tris+0.192 M MgSO4 0.14 M Ionic strength

[2] = pH at which the peptide starts to undergo self-assembly; format: physicochemical
Excerpt: Particular self-assembling peptides for use according to the invention are selected such that they are in self-assembled form when the pH of their environment is below a certain pH, e.g. below pH 7.5, e.g., at physiological ionic strength. The pH at which preferred self-assembling peptides of the invention undergo self-assembly is below 7.5, preferably below 7.2, more preferably below 7.0. For example, the pH at which the self-assembling peptide P11-4 (SEQ ID NO:1) and terminally modified P11-4 (SEQ ID NO:2) start to undergo self-assembly is about 7.5. This means that the self-assembling peptides start to self-assemble to a significant extent when the pH drops below 7.5.
As used herein, the pH at which the self-assembling peptide starts to undergo self-assembly refers to the pH below which a significant extent of self-assembly of the peptides in solution is observed, which means that at least about 25%, about 30%, about 35%, about 40%, about 45%, about 50%, about 55%, about 60%, about 65%, about 70%, about 75%, about 80%, about 85%, about 90%, about 95%, about 99% or even about 100% of the peptides found in the dental care product are assembled. In a preferred embodiment, at least about 25% of the peptides found in the dental care product are assembled below the pH at which the peptide starts to undergo self-assembly. […]

Row | Substance | time of self-assembly of peptide monomers to polymers [1] | pH at which the peptide starts to undergo self-assembly [2]
1 | QQRFEWEFEQQ | more than 5 min | about 7.5
2 | CH3CO-QQRFEWEFEQQ-NH2 (Ac-QQRFEWEFEQQ-NH2) [terminally modified P11-4] |  | about 7.5
